Patent US8624002B2, “Prostaglandin E2 binding proteins and uses thereof” (AbbVie, Inc., priority 2008, dated 2014)
Residue numbers refer to the chain shown, from its start.

B1: Hu2B5.1: humanized 2B5-8.0; VH SEQ ID NO 60, VL SEQ ID NO 61 (antibody, V domains shown)
VH: EVQLVQSGAEVKKPGASVKVSCKASGYTFTKYWLGWVRQAPGQGLEWIGDIYPGYDYTHYNEKFKDRATLTVDTSTSTAYMELRSLRSDDTAVYYCARSDGSSTYWGQGTLVTVSS
VL: DVVMTQTPLSLPVTPGEPASISCTSSQNIVHSNGNTYLEWYLQKPGQSPQLLIYKVSNRFSGVPDRFSGSGSGTDFTLKISRVEAEDVGVYYCFQVSHVPYTFGGGTKVEIKR
B2: Hu2B5.4: humanized 2B5-8.0; VH SEQ ID NO 66, VL SEQ ID NO 67 (antibody, V domains shown)
VH: B1 VH with R84S
VL: B1 VL with V3L
B3: Hu2B5.8: humanized 2B5-8.0; VH SEQ ID NO 74, VL SEQ ID NO 75 (antibody, V domains shown)
VH: B1 VH with I48M, A68V, V72T, R84S
VL: B1 VL with V3L
B4: Hu2B5.3: humanized 2B5-8.0; VH SEQ ID NO 64, VL SEQ ID NO 65 (antibody, V domains shown)
VH: B1 VH
VL: B1 VL with V3L
B5: Hu2B5.2: humanized 2B5-8.0; VH SEQ ID NO 62, VL SEQ ID NO 63 (antibody, V domains shown)
VH: B1 VH with R84S
VL: B1 VL
B6: Hu2B5.6: humanized 2B5-8.0; VH SEQ ID NO 70, VL SEQ ID NO 71 (antibody, V domains shown)
VH: B1 VH with I48M, A68V, V72T, R84S
VL: B1 VL

Assay: PGE2 competition ELISA, format not stated (biotin-PGE2 or ^3H-PGE2)
Type: binding
Details: PGA2; humanized antibodies table
Protocol: Competition enzyme linked immunosorbent assays were performed to determine prostaglandin binding specificity for antibodies that bind prostaglandin E2, according to at least one of the two following methods.
ELISA plates (Costar 3369, Corning, N.Y.) were coated with 50 μl/well of anti-host Fc IgG (Sigma, St. Louis, Mo.) at 2 μg/ml in PBS (Invitrogen, Carlsbad, Calif.). Following an overnight incubation at 4° C., the plate was blocked with 200 μl Superblock (Pierce #37535, Rockford, Ill.). The IgG samples were diluted to 6 μg/ml in Assay Buffer (10% Superblock in PBS containing 0.05% Surfactamps (Pierce #37535, Rockford, Ill.). The PGE2-biotinamide was diluted to 3 nM in Assay Buffer. A titration curve in Assay Buffer was prepared for the prostaglandins PGA2 (Cayman Chemicals, Ann Arbor, Mich.), PGD2 (Cayman Chemicals, Ann Arbor, Mich.) and PGE2 (Cayman Chemicals, Ann Arbor, Mich.) starting at 300 nM by a 1:10 serial dilution. The reagents were added to tubes at a volume of 50 μl each/tube and preincubated for 1 hour at room temperature. Following the preincubation, the mix was transferred to the blocked plates and allowed to incubate for 1 hour at room temperature. Next, the plates were washed four times with Tween 20-Tris buffered solution (TTBS). Streptavidin polyhrp40 in Assay Buffer (Fitzgerald Industries, Concord, Mass.) at a 1:5000 dilution was then added to the wells and incubated for 45 minutes at room temperature. A final wash step was performed and the plates were developed using a single step TMB system (Sigma #T8665, Sigma, St. Louis, Mo.) and 100 μl/well 2N H2SO4. Plates were read at 450 nm on a Molecular Devices Spectramax plate reader (Sunnyvale, Calif.). […] IC50 number was determined using GraphPad Prism 5 (GraphPad Software, La Jolla, Calif.). The cross reactivity index was then calculated by IC50 of PGE2/IC50 of other prostaglandin(s).
Alternatively, prostaglandin selectivity was determined using a ^3H-PGE2 competition ELISA. Plates were coated with 50 μL/well of 5 μg/ml of goat anti-human IgG (Fc) (Thermo Scientific # 31170, Hudson, N.H.) or goat anti-mouse IgG (Fc) (Thermo Scientific # 31125, Hudson, N.H.) in PBS and incubated overnight at 4° C. The following day plates were flicked and blotted dry. Plates were blocked with 200 μL/well of Superblock (Thermo Scientific # 37515, Hudson, N.H.), 1 hour at room temperature. Plates were flicked and blotted dry. Monoclonal antibodies were diluted to 0.04 μg/ml in PBST (Abbott Bioresearch Center, Worcester, Mass.)/10% Superblock and 50 μL of each was added to each well (2 ng/well) of the pre-blocked ELISA plate and incubated for 1 hour at room temperature. Wells were washed 3 times with PBS/0.1% Tween-20. ^3H-PGE2 (Perkin Elmer # NET-428, Waltham, Mass.) was diluted in PBST/10% Superblock to 6 nM (2× stock). Each prostaglandin (Cayman Chemicals, Ann Arbor, Mich.) was prepared in PBST+10% Superblock at various concentrations ranging from 2000 μM (2× stock) to 0.00004 μM (2×). Equal volumes of the ^3H-PGE2 solution and of each prostaglandin dilution were mixed. Fifty microliters of this mixture was then added to each well of the plate and incubated for 1 hour at room temperature. Wells were washed manually 6 times with PBST/10% Superblock and 50 μL of scintillation fluid (Perkin Elmer # 6013621, Waltham, Mass.) added to each well. Plates were read using a TopCount reader (Perkin Elmer, Waltham, Mass.) with a 5 minute count delay. IC50 number was determined using GraphPad Prism 5 (GraphPad Software, La Jolla, Calif.). The cross reactivity index was then calculated by IC50 of PGE2/IC50 of other prostaglandin(s)
Several antibodies, named 19C9, 4F10 and 15F10 specific for PGE2 were isolated. […] The specificity of these antibodies for PGE2 was further determined by a competition ELISA with various prostaglandins as described in Example 1.B (Table 2). […]

Molecule | Cross Reactivity Index (%) PGA2 [%]
B1 | 0.21
B2 | 0.22
B3 | 0.20
B4 | 0.18
B5 | 0.18
B6 | 0.15

Same assay, conditions: PGD2; humanized antibodies table

Molecule | Cross Reactivity Index (%) PGD2 [%]
B1 | <0.01
B2 | <0.01
B3 | <0.01
B4 | <0.01
B5 | <0.01
B6 | <0.01

Same assay, conditions: PGE1; humanized antibodies table

Molecule | Cross Reactivity Index (%) PGE1 [%]
B1 | 16
B2 | 14
B3 | 8.5
B4 | 14
B5 | 14
B6 | 11

Assay: Intrinsic thermodynamic stability by DSC
Type: physicochemical
Details: 0.79 mg/mL, pH 6, 10 mM citrate, 10 mM phosphate
Protocol: The thermal stability of the anti-PGE2 antibodies was assessed using a DSC instrument. The DSC instrument used was an automated VP-DSC equipment with Capillary Cell (Microcal, GE Healthcare Ltd./Microcal, Buckinghamshire, UK). Unfolding of molecules was studied applying a 1° C./minute scan rate over a 25° C.-95° C. temperature range for samples at 1 mg/mL. Additional measurement parameters applied were a fitting period of 16 seconds, a pre-scan wait time of 10 minutes, and measurements were performed in none-feedback mode. Per individual measurement, 420 μL of sample/blank were filled into the DSC measurement sample holder, with a plate fill scheme as provided below. The thermograms obtained were fitted to a non two state model to obtain the midpoint temperatures and enthalpies of the different transitions.
The stability of a series of clones (i.e., anti-PGE2 antibodies) of the parent anti-PGE2 antibody was assessed by using intrinsic thermodynamic clone stability determination using DSC (0.79 mg/mL clone concentration, formulated at pH 6 in a 10 mM citrate, 10 mM phosphate buffer) and by accelerated stability screening (0.79 mg/mL clone concentration, formulated at pH 6 in a 10 mM citrate, 10 mM phosphate buffer, for 7 days at 50° C.) where clone stability was monitored with SEC (Table 15).

Molecule | Tm1 (° C.) [°C]
B1 | 72.835
B2 | 71.095
B3 | 72.96
B4 | 72.67
B5 | 72.845
B6 | 73.035

Same assay, conditions: same buffer

Molecule | Tm2 (° C.) [°C] | Tm3 (° C.) [°C]
B1 | 75.02 | 82.785
B2 | 72.41 | 82.58
B3 | 75.33 | 82.83
B4 | 72.96 | 82.67
B5 | 75.08 | 82.67
B6 | 75.585 | 82.95

Assay: Capillary zone electrophoresis
Type: physicochemical
Details: running buffer pH 5.5; compared with Hu2B5.2, Hu2B5.4, Hu2B5.6, Hu2B5.8

Molecule | migration in capillary zone electrophoresis
B1 | migrated more basic
B4 | migrated more basic

Assay: Biotin-PGE2 ELISA (PGE2-biotinamide binding to captured IgG)
Details: not given

EC50 [pM] | Molecule
63 | B1
57 | B2
87 | B3
59 | B4
55 | B5
89 | B6
